Test results: US6767991 (Boehringer Ingelheim, dated 2004)
Read-outs that look alike come from different tables or passages of the source. *1 amine or outer side, *2 acyl side, *3 side chain or, on linkers, in order; H or OH if unused. Primed or numbered codes have the meaning given here. Where no end group is shown, it is not given here. [ ]: non-standard residue; d: D form. Pro((4-tert-butyl-phenyl)-methoxy) = Pro(4-R13), R13 = (4-tert-butyl-phenyl)-methoxy; Hyp(4-Bn) = 4(R)-benzyloxyproline, O=C([C@@H]1C[C@@H](OCc2ccccc2)CN1[*:1])[*:2]; Pro(1-NpCH2O)″ = Pro(4-R13), R13 = naphthalen-1-ylmethoxy; Pro(2-NpCH2O)″ = Pro(4-R13), R13 = naphthalen-2-ylmethoxy; Glutaryl = O=C(CCCC(=O)[*:2])[*:1]; Pro(4-OBn) = Pro(4-R13), R13 = OBn; Pro(O-Bn) = Pro(4-R13), R13 = O-Bn; NMeI = CC[C@H](C)[C@H](NC)C(=O)O; Pro(Bn) = Pro(4-R13), R13 = Bn; AllylGly = C=CC[C@H](N)C(=O)O; Chg = N[C@H](C(=O)O)C1CCCCC1; Suc = O=C(CCC(=O)[*:2])[*:1]; Tle = CC(C)(C)[C@H](N)C(=O)O; code B = not defined here; Ac5c = NC1(C(=O)O)CCCC1; Acca = not defined here; Nva = CCC[C@H](N)C(=O)O; Abu = CC[C@H](N)C(=O)O; Acc = not defined here; Ac3c = NC1(C(=O)O)CC1

What was measured:
Assay in all cases: cell-based or functional assay
[1] = target: T1, recombinant NS3 protease with the NS4A peptide cofactor … (molar ratio enzyme:cofactor 1:100) (hepatitis C virus genotype 1b)
[2] = target: T1, recombinant NS3 protease with the NS4A …; remark: listed apart in the source
[3] = target: T1, recombinant NS3 protease with the NS4A …; remark: listed apart in the source
[4] = target: T1, recombinant NS3 protease with the NS4A …; remark: listed apart in the source

Binder	IC50 [1] [µM]	IC50 [2] [µM]	also measured
Ac-DDIV[Pro(4-(Ph(CH2)3))][Nva] [Compound 230 (Table 2): Ac-Asp-Asp-Ile-Val-Pro(Ph(CH2)3)-Nva]	3.3	–	–
Ac-[Chg]VPC (not fully specified (residue 3); printed as Ac-Chg-Val-Pro(O-Bn)-Cys) [Compound 261 (Table 2): Ac-Chg-Val-Pro(O-Bn)-Cys]	28	–	–
Ac-DDIVP[Nva] [Compound 273 (Table 2): Ac-Asp-Asp-Ile-Val-Pro(R13 = H)-Nva]	17.5	–	–
{code B}-IV[Pro(4-(1-NpCH2O))][Nva] (reading uncertain; also: further groups not given here, printed as B-Ile-Val-Pro(1-NpCH2O)-Nva) [Compound 224 (Table 2): B-Ile-Val-Pro(1-NpCH2O)-Nva, B drawn]	56	–	–
Ac-D[Tle]IVPC [Compound 108 (Table 1): Ac-Asp-Tbg-Ile-Val-Pro-Cys]	–	31	–
Ac-DD[Tle]VPC [Compound 111 (Table 1): Ac-Asp-Asp-Tbg-Val-Pro-Cys]	–	79	–
Ac-DDIVP[Ac5c] [Compound 125 (Table 1): Ac-Asp-Asp-Ile-Val-Pro-Acpe]	–	210	–
Suc-DIVP[Nva] [Compound 130 (Table 1): DAD-Asp-Ile-Val-Pro-Nva]	–	123	–
Ac-D[dE]IV[Pro(4-OBn)]C [Compound 260 (Table 2): Ac-Asp-D-Glu-Ile-Val-Pro(O-Bn)-Cys]	0.18	–	–
Ac-DDIV[Hyp(4-Bn)]C [Compound 121 (Table 1): Ac-Asp-Asp-Ile-Val-Hyp(4-Bn)-Cys]	–	1.7	–
Suc-DIVPC [Compound 103 (Table 1): DAD-Asp-Ile-Val-Pro-Cys]	–	26	–
{HOOC‑CH2‑N(Me)‑C(O)‑CH2‑CH(cyclohexyl)‑C(O)}-Val-[Pro(4-(1-NpCH2O))]-[Ac3c] [Compound 409 (Table 4): B HOOC-CH2-N(Me)-C(O)-; R4 cyclohexyl; P3 Val; R13 1-NpCH2O; P1 Acca]	–	–	IC50 [3]: 24 µM
Suc-[NMeI]V[Pro(4-(1-NpCH2O))][Nva] [Compound 220 (Table 2): DAD-N(Me)Ile-Val-Pro(1-NpCH2O)-Nva]	31	–	–
Ac-D[dD]IVPC [Compound 104 (Table 1): Ac-Asp-D-Asp-Ile-Val-Pro-Cys]	–	8.5	–
Ac-DDIVP[Abu] [Compound 122 (Table 1): Ac-Asp-Asp-Ile-Val-Pro-Abu]	–	315	–
Ac-DDIV[Pro(2-NpCH2O)″][Nva] [Compound 208 (Table 2): Ac-Asp-Asp-Ile-Val-Pro(2-NpCH2O)-Nva]	0.71	–	–
Ac-DDIV[Pro(O-Bn)][Nva] [Compound 201 (Table 2): Ac-Asp-Asp-Ile-Val-Pro(O-Bn)-Nva]	7.2	–	–
Ac-DE[Chg]V[Glu(OBn)][Acca] (reading uncertain; also: printed as Ac-Asp-Glu-Chg-Val-Glu(OBn)-Acca) [Compound 133 (Table 1): Ac-Asp-Glu-Chg-Val-Glu(OBn)-Acca]	–	39	–
{EtOOC‑CH‑N(Me)2‑C(O)‑CH2‑CH(cyclohexyl)‑C(O)}-Val-[Pro(4-(1-NpCH2O))]-[Ac3c] [Compound 410 (Table 4): B EtOOC-CH-N(Me)2-C(O)-; R4 cyclohexyl; P3 Val; R13 1-NpCH2O; P1 Acca]	–	–	IC50 [3]: 32 µM
Suc-IV[Pro(4-(1-NpCH2O))][Nva] [Compound 221 (Table 2): DAD-Ile-Val-Pro(1-NpCH2O)-Nva]	22	–	–
Ac-DDIV[Pro(Bn)][Nva] [Compound 216 (Table 2): Ac-Asp-Asp-Ile-Val-Pro(Bn)-Nva]	60	–	–
Ac-DE[Chg]EEC [Compound 131 (Table 1): Ac-Asp-Glu-Chg-Glu-Glu-Cys]	–	24	–
Ac-EDIVPC [Compound 102 (Table 1): Ac-Glu-Asp-Ile-Val-Pro-Cys]	–	59	–

Binder	IC50 [1] [µM]	IC50 [2] [µM]	also measured
Ac-DDIVP[AllylGly] [Compound 124 (Table 1): Ac-Asp-Asp-Ile-Val-Pro-AlGly]	–	210	–
Ac-[Chg]VX[Acc] (not fully specified (residue 3); printed as Ac-Chg-Val-W-Acc; also: further groups not given here) [Compound 304 (Table 3): Ac-Chg-Val-W-Acc, W drawn]	–	–	IC50 [4]: 1.1 µM
{HOOC‑CH2CH2‑N(Me)C(O)‑CH2‑CH(cyclohexyl)‑C(O)}-Val-[Pro(4-(1-NpCH2O))]-[Ac3c] [Compound 405 (Table 4): B HOOC-CH2CH2-N(Me)C(O)-; R4 cyclohexyl; P3 Val; R13 1-NpCH2O; P1 Acca]	–	–	IC50 [3]: 1.6 µM
Ac-DDIV[Pro(4-(Ph(CH2)3))][Nva] [Compound 217 (Table 2): Ac-Asp-Asp-Ile-Val-Pro(Ph(CH2)3)-Nva]	3	–	–
Glutaryl-IVP[Ac3c] (not fully specified (residue 3); printed as DAE-Ile-Val-Pro(1-NpCH2O)-Acca) [Compound 237 (Table 2): DAE-Ile-Val-Pro(1-NpCH2O)-Acca]	5.5	–	–
Ac-DDIVIC [Compound 119 (Table 1): Ac-Asp-Asp-Ile-Val-Ile-Cys]	–	90	–
Ac-DIV[Pro(4-(1-NpCH2O))][Nva] [Compound 219 (Table 2): Ac-Asp-Ile-Val-Pro(1-NpCH2O)-Nva]	2.3	–	–
Ac-DDIVPC [Compound 101 (Table 1): Ac-Asp-Asp-Ile-Val-Pro-Cys]	–	46	–
{(HOOC-(CH2)2)2‑NC(O)‑CH2‑CH(cyclohexyl)‑C(O)}-Val-[Pro(4-(1-NpCH2O))]-[Ac3c] [Compound 413 (Table 4): B [HOOC-(CH2)2]2-NC(O)-; R4 cyclohexyl; P3 Val; R13 1-NpCH2O; P1 Acca]	–	–	IC50 [3]: 0.12 µM
{MeOOC‑CH2‑CH2‑N(Me)c(O)‑CH2‑CH(cyclohexyl)‑C(O)}-Val-[Pro(4-(1-NpCH2O))]-[Ac3c] [Compound 406 (Table 4): B MeOOC-CH2-CH2-N(Me)c(O)-; R4 cyclohexyl; P3 Val; R13 1-NpCH2O; P1 Acca]	–	–	IC50 [3]: 25 µM
{MeOOC‑(CH2)2‑N(Me)2‑C(O)‑CH2‑CH(cyclohexyl)‑C(O)}-Val-[Pro(4-(1-NpCH2O))]-[Ac3c] [Compound 408 (Table 4): B MeOOC-(CH2)2-N(Me)2-C(O)-; R4 cyclohexyl; P3 Val; R13 1-NpCH2O; P1 Acca]	–	–	IC50 [3]: 11 µM
Ac-IVP[Nva] (not fully specified (residue 3); printed as Ac-Ile-Val-Pro(1-NpCH2O)-Nva) [Compound 225 (Table 2): Ac-Ile-Val-Pro(1-NpCH2O)-Nva]	45	–	–
{HOOC‑CH2CH2‑N(Me)2‑C(O)‑CH2‑CH(cyclohexyl)‑C(O)}-Val-[Pro(4-(1-NpCH2O))]-[Ac3c] [Compound 407 (Table 4): B HOOC-CH2CH2-N(Me)2-C(O)-; R4 cyclohexyl; P3 Val; R13 1-NpCH2O; P1 Acca]	–	–	IC50 [3]: 1.5 µM
{(HOOC-(CH2)2)2‑NH‑CH2‑CH2‑CH(cyclohexyl)‑C(O)}-Val-[Pro(4-(1-NpCH2O))]-[Ac3c] [Compound 411 (Table 4): B [HOOC-(CH2)2]2-NH-CH2-; R4 cyclohexyl; P3 Val; R13 1-NpCH2O; P1 Acca]	–	–	IC50 [3]: 0.36 µM
Ac-D[dV]IVPC [Compound 274 (Table 2): Ac-Asp-D-Val-Ile-Val-Pro(R13 = H)-Cys]	7.6	–	–
Ac-IVP[Ac3c] (not fully specified (residue 3); printed as Ac-Ile-Val-Pro(1-NpCH2O)-Acca) [Compound 262 (Table 2): Ac-Ile-Val-Pro(1-NpCH2O)-Acca]	40	–	–
Ac-D[dE]IVPC [Compound 105 (Table 1): Ac-Asp-D-Glu-Ile-Val-Pro-Cys]	–	1.5	–
Ac-DDIV[Pro((4-tert-butyl-phenyl)-methoxy)][Nva] [Compound 209 (Table 2): Ac-Asp-Asp-Ile-Val-Pro((4-tert-butyl-phenyl)-methoxy)-Nva]	2.6	–	–
{(HOOC-CH2)2‑NC(O)‑CH2‑CH(cyclohexyl)‑C(O)}-Val-[Pro(4-(1-NpCH2O))]-[Ac3c] [Compound 412 (Table 4): B [HOOC-CH2]2-NC(O)-; R4 cyclohexyl; P3 Val; R13 1-NpCH2O; P1 Acca]	–	–	IC50 [3]: 0.8 µM
{code B}-IV[Pro(4-(1-NpCH2O))][Nva] (reading uncertain; also: further groups not given here, printed as B-Ile-Val-Pro(1-NpCH2O)-Nva) [Compound 223 (Table 2): B-Ile-Val-Pro(1-NpCH2O)-Nva, B drawn]	51	–	–
Ac-DDIVP[Ac3c] [Compound 126 (Table 1): Ac-Asp-Asp-Ile-Val-Pro-Acca]	–	45	–
Glutaryl-IV[Pro(4-(1-NpCH2O))][Nva] [Compound 222 (Table 2): DAE-Ile-Val-Pro(1-NpCH2O)-Nva]	20	–	–
Ac-DDIV[Pro(1-NpCH2O)″][Nva] [Compound 207 (Table 2): Ac-Asp-Asp-Ile-Val-Pro(1-NpCH2O)-Nva]	0.39	–	–
